Test [1] deals with T1, cynomolgus BTLA expressed on HEK-293 cells (cynomolgus, UniProt A0A2K5W7M7 31-289).
T1 construct: whole, on cells; also called Cyno BTLA
Briefly: flow cytometry (MFI) on HEK 293 cells expressing BTLA.

Test [2] has as its target T2, human BTLA expressed on HEK-293 cells (human, UniProt Q7Z6A9 31-289).
T2 construct: whole, on cells
The test is described as above.

Test [3] concerns the target T3, human BTLA-human Fc (human, UniProt Q7Z6A9 31-151, limits assumed).
T3 construct: not shown: human Fc
Briefly: blocking ELISA: BTLA-human Fc binding to coated human HVEM-ratIgG2a. (ELISA stands for enzyme-linked immunosorbent assay.)

The target in test [4] is T4, cynomolgus BTLA(ECD)-HIS (cynomolgus, UniProt A0A2K5W7M7 31-157).
T4 construct: extracellular domain; also called Cyno BTLA; not shown: HIS tag
T4 sequence (A0A2K5W7M7 entry or part of it): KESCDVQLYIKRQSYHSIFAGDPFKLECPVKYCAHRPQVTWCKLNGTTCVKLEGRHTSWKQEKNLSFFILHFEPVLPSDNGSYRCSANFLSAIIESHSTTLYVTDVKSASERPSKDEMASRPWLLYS
Briefly: ELISA, BTLA(ECD)-HIS coated, chemiluminescence (RLU).

Test [5] addresses T5, human BTLA(ECD)-HIS (human, UniProt Q7Z6A9 31-157).
T5 construct: extracellular domain; not shown: HIS tag
The description is as above.

In test [6] the target is recombinant human BTLA (human, UniProt Q7Z6A9 31-151, limits assumed). Briefly: Bio-Layer Interferometry (Octet), antibody captured by anti-human-Fc, BTLA in solution, 1:1 model. Background: Biolayer interferometry detects binding as a change in optical thickness at a sensor tip.
Test [7] addresses T6, cynomolgus BTLA (analyte in Bio-Layer Interferometry) (cynomolgus, UniProt A0A2K5W7M7 31-151).
T6 construct: also called Cyno BTLA
Described as above.

Test [8] has as its target T7, cynoBTLA-human Fc (cynomolgus, UniProt A0A2K5W7M7 31-151).
T7 construct: not shown: human Fc
As to the kind of experiment: blocking ELISA: cynoBTLA-human Fc binding to coated human HVEM-ratIgG2a.

T6 sequence (A0A2K5W7M7 entry or part of it): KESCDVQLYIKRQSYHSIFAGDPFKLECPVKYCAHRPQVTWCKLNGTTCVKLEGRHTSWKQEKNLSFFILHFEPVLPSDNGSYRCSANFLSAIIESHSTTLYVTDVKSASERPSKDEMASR
T1 sequence (A0A2K5W7M7 entry or part of it): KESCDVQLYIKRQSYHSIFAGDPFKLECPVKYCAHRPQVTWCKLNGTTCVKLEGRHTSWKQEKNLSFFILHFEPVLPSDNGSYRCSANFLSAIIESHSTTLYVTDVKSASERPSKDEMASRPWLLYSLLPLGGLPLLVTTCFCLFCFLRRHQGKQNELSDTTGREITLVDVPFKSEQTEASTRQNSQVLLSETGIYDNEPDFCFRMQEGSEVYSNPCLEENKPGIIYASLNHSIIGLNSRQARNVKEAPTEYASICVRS

B1: anti-BTLA antibody 15-C19A (antibody, V domains shown)
VH: QVQLQESGPGLVKPSETLSLTCTVSGGSISSYYWSWIRQPPGKGLEWIGYISYSGSTNYNPSLKSRVTISADTSKNQFSLKLSSVTAADTAVYYCARDFYYGMDVWGQGTTVTVSS
VL: AIQLTQSPSSLSASVGDRVTITCRASQGISSALAWYQQKPGKAPKLLIYDASSLESGVPSRFSGSGSGTDFTLTISSLQPEDFATYYCHQFDYYPTFGGGTKVEIK
Take B1: the EC50 – broadly, the concentration at which the effect is half-maximal – in test [1] came out at 4.4 nM; in test [2], 5.5 nM; in test [4], 1.4 nM; in test [5], 0.8 nM. Besides, the values for the IC50 in test [3] and in test [8] were 3.5 nM and 2.4 nM, respectively. In addition, the Kd (usually the equilibrium constant for the complex coming apart) in test [6] was 144 nM; in test [7], 0.1 nM.

The record behind these values is US20230340123A1 (published 2023).
